# In patent US20250051478A1 (Y MABS THERAPEUTICS, published 2025):
# B1: YMS9d (bispecific antibody)
# chain: QVQLQESGPGLVKPSETLSLTCTVSGFSLTSYGVHWVRQPPGKGLEWIGVMWRGGSTDYNAAFKSRVTISKDNSKNQVSLKLSSVTAADTAVYYCAKSMITTGFVMDSWGQGTLVTVSSGGGGSGGGGSGGGGSGGGGSGGGGSGGGGSDIQLTQSPSSLSASVGDRVTITCKASEDIYNRLTWYQQKPGKAPKLLISGATSLETGVPSRFSGSGSGKDYTFTISSLQPEDFATYYCQQYWSNPYTFGQGTKLEIKGGGGSGGGGSGGGGSGGGGSHVQLVESGGGLVQPGGSLRLSCAASGFSLTDYGVHWVRQAPGKGLEWLGVIWSGGGTAYNTALISRFTISRDNSKNTLYLQMNSLRAEDTAVYYCARRGSYPYNYFDAWGQGTLVTVSSGGGGSGGGGSGGGGSGGGGSGGGGSGGGGSQAVVTQEPSLTVSPGGTVTLTCGSSTGAVTASNYANWVQQKPGQAPRGLIGGHNNRPPGVPARFSGSLLGGKAALTLLGAQPEDEAEYYCALWYSDHWVIGGGTKLTVLGTPLGDTTHTSGKPLDGEYFTLQIRGRERFEMFRELNEALELKDAQAGKEPGGSGGAP
# modifications: Self-assembles into tetramers through the p53 SADA domain; labelled with 125I in Example 8.
# notes: also called CD38-SADA construct without disulfide bonds; CD38-SADA
# Key:
# [1] = biological target: T1, CD38 (UniProt P28907 43-300, limits assumed); experiment: SPR; YMS9d diluted to 1 mg/ml from the 10 mg/ml solution
# T1 construct: also called cyclic ADP ribose hydrolase
# [2] = biological target: T1, CD38; experiment: SPR; YMS9d diluted to 1 mg/ml from the 20 mg/ml solution
binder,measurement,setting,value
B1,Kd,[1],7.5 nM
same,koff,[1],0.0011 s⁻¹
same,kon,[1],140000 M⁻¹ s⁻¹
same,Kd,[2],8.1 nM
same,koff,[2],0.0011 s⁻¹
same,kon,[2],130000 M⁻¹ s⁻¹
